Experimental data as given in article PMC5444381.
Like-named read-outs stand apart in the source and are kept apart here.

Legend:
[1] = biological target: BaL.01 Env trimeric spikes on pseudotyped viruses (HIV-1 BaL.01)
[2] = biological target: BaL.01 Env trimeric spikes on pseudotyped viruses (HIV-1 BaL.01); remark: listed apart in the source
[3] = biological target: BaL.01 Env trimeric spikes on pseudotyped viruses (HIV-1 BaL.01); remark: listed apart in the source

| Substance | EC50 of virolysis (p24 release from HIV-1 BaL.01 pseudovirus, sandwich ELISA) [1] [nM] | IC50 of inhibition of HIV-1 BaL.01 pseudovirus infection of HOS.T4.R5 cells [1] [nM] | IC50 of inhibition of HIV-1 BaL.01 pseudovirus infection of HOS.T4.R5 cells [2] [nM] | EC50 of virolysis (p24 release from HIV-1 BaL.01 pseudovirus, sandwich ELISA) [3] [nM] |
| --- | --- | --- | --- | --- |
| DAVEI-L4(ΔCRAC) | 28.3 | 1.1 |  |  |
| DAVEI-L4(ΔCRAC)-W3,7,9,15A |  |  | 0.78 | 122 |
| DAVEI-L4(ΔCRAC)-W7,9,15A |  |  | 0.36 | 43.1 |
| DAVEI-L4(ΔCRAC)W9,15A |  |  | 0.45 | 49.7 |
| DAVEI-L4(ΔCRAC)W15A |  |  | 0.4 | 46.8 |
| DAVEI-L4(ΔMPER) |  | 1.4 |  |  |
